Test results: article PMC7506551, “A heterotrimeric SMARCB1–SMARCC2 subcomplex is required for the assembly and tumor suppression function of the BAF chromatin-remodeling complex” (Cell Discovery, 2020)

B1: SMARCC2 (aa 325–518) (domain or fragment, human, UniProt Q8TAQ2 325-518, looked up)
chain: TKSKRGHREEEQEDLTKDMDEPSPVPNVEEVTLPKTVNTKKDSESAPVKGGTMTDLDEQEDESMETTGKDEDENSTGNKGEQTKNPDLHEDNVTEQTHHIIIPSYAAWFDYNSVHAIERRALPEFFNGKNKSKTPEIYLAYRNFMIDTYRLNPQEYLTSTACRRNLAGDVCAIMRVHAFLEQWGLINYQVDAES
notes: SMARCC2/BAF170, human, residues 325-518, holds the SWIRM domain; resolved 423-514 in the crystal, residues 325-422 possibly degraded during crystallization; Two copies stand in the heterotrimer with one SMARCB1 169-385; also called SMARCC2^(325–518); BAF170
B2: isolated Rpt1 motif of SMARCB1 (domain or fragment)
chain: DDHDPAVIHENASQPEVLVPIRLDMEIDGQKLRDAFTWNMNEKLMTPEMFSEILCDDLDLNPLTFVPAIASAIRQQIESYPTDS

Key:
SMARCB1 (aa 169–385) = target: T1, SMARCB1 (aa 169–385) (human, UniProt Q12824 169-385); test: ITC; conditions not shown; two-site binding model for SMARCC2 325-518 with SMARCB1 169-385; conditions: both partners purified
T1 construct: SMARCB1/BAF47/INI1/SNF5, human, residues 169-385, holds the Rpt1 and Rpt2 motifs; resolved 184-356 in the crystal; they may stand in the supplementary information; also called SMARCB1^(169–385); BAF47

[1] = target: T2, SWIRM domain of SMARCC2 (aa 423–518) (human, UniProt Q8TAQ2 423-518); test: as above; conditions: both partners purified
T2 construct: SMARCC2/BAF170, human, SWIRM domain, residues 423-518; also called SMARCC2^(423–518); SMARCC2^SWIRM

| Binder | Kd of one of the two sites (two-site binding model) (SMARCB1 (aa 169–385)) [nM] | Kd [1] [nM] |
| --- | --- | --- |
| B1 | 112 | – |
| B2 | – | ~120 |
